According to the DeepSol protein solubility set:

test: soluble on expression in E. coli; label from the status in PepcDB or PDB records

Sequence | soluble on expression in E. coli
MGSDKIHHHHHHMKEIALLAIARYGDLIQTTPLVRALRRAHPGARITAIVEDRFCGILPLLPGIDRTIVLNKQDIAWDIATGDSPLVPYLKMDEFVRKLEEGSYDLLVNITCSRLSAFFASCVTSRRRTGISADEAGERNIVTLWGQYIFSWFNDNIRKYNAINLVDIFTRLGEVPPDGRRVELVATEKGERFADDFLDRHGLRGQRLVGLQLGASEATRIWPAEHFARISDRLQRELGVRTILFGAPVEKHLAGQAMAAMEMPAVDAVGETGIEELYSLVGRCAALVSNDTGTMHFAAAAGVPAVMLCIGPAFFRCTGPYGEGHLALQPDLPCSPCPYSLVCADPVCRDTISPEAVFSACRMILAGADGLGNADFSGVRVYRSSFAPDGYLTWDGLFNVDAWEEEQVKRRESAWKGCFDGSTKGCGAPGDETLRAFWELTGRGIEATEAIIRAARKKPLPVDEIRRLGEKESAIEAEVKLMGYRHEPLAPVTEFLTLMRENITGEELGRIARETRSLYETGRCLAALL | not soluble
MGSDKIHHHHHHMKEIDELTIKEYGVDSRILMERAGISVVLAMEEELGNLSDYRFLVLCGGGNNGGDGFVVARNLLGVVKDVLVVFLGKKKTPDCEYNYGLYKKFGGKVVEQFEPSILNEFDVVVDAIFGTGLRGEITGEYAEIINLVNKSGKVVVSVDVPSGIDSNTGKVLRTAVKADLTVTFGVPKIGHILFPGRDLTGKLKVANIGHPVHLINSINRYVITREMVRSLLPERPRDSHKGTYGKVLIIAGSRLYSGAPVLSGMGSLKVGTGLVKLAVPFPQNLIATSRFPELISVPIDTEKGFFSLQNLQECLELSKDVDVVAIGPGLGNNEHVREFVNEFLKTLEKPAVIDADAINVLDTSVLKERKSPAVLTPHPGEMARLVKKTVGDVKYNYELAEEFAKENDCVLVLKSATTIVTDGEKTLFNITGNTGLSKGGSGDVLTGMIAGFIAQGLSPLEASTVSVYLHGFAAELFEQDERGLTASELLRLIPEAIRRLKE | soluble
MGSDKIHHHHHHMKEIINLDEMIMLLKTIAESSRLRLLALLYHEDLTVSDFTLVLGQSQSHVLQHLHLLYEAQLVERYQKGRSIYFKLYYGRLGKDIVMAVVSALLEHNRVIAHDLARLKDIKKQYRKQEKKYFLQNVVQWDTLRLFSIADLGVENALREIVGDKPFETMLDISRDTGSVLKLFSGLYTYAVEVVLDSDILHLSVENTTFDLVILHWVLYFLESPEVALHEIAGVLRPHGRLLIVDFVRHEVESSHSYLSHMPFGFSDLQIEQWLKNVGLILEKIICFPPLQNENNERLMVKIWLARDPRLLVDDIKDKKVEFA | not soluble
MGSDKIHHHHHHMKEINLASVLVAKRREKGITQDELAAYIGVSKASVSKWETGQSYPDITFLPLLAAYFNISIDELMSYSPQMERSDIAKLYTRLAADFASRPFEDVIAECAALIKKYYSCFPLLVQLVKLYTNHFMLAGTQERQEALLNETVTLCERIQAESGDVQLAKEAVSYQALCSLALQRPQQVLDLLGEGIRPMLPEGMLIAQAYQVMGNIGKAKETLQTELYQYVMVAFQGLLNVLQMATDHFEKAEEAFLRASDLAQIFNMKQLNPNNVILLYALGARMYCANNSHAKAIELLGNYVDTCVGGFFPFELHGDAFFDLIDPWLKDCGAAAPRSEQVIKESMLRDVLMNPAFASLQDDPGYRRLVQKMERFIGR | not soluble
MGSDKIHHHHHHMKEKTVAIFNGYYIPHLGGVERYTYNIAKKLTEKGYRVIIITTQHDENLTNEEIQEGIKIYRLPIKNLWKNRYPFLKKNRIYHSLIEKIEAESIDYYVANTRFHLPAMLGVKMAKAKGKEAIVIEHGSSYLTLNNPVLDFMLRKIEQLLIGRVKKDTSLFYGVSNEASEWLKTFDIKAKGVLPNAVAVDEYFNQKIEKDEKKLTISYAGRLIPQMKGVEILLSTFSKLSKERKNLELIIAGDGPLLNEVKRKYSQKNIKFLGYVPYEKVLEIDAKSDVFVLMSRSEGFATAMLEAAMLENVIITTPTVGGARDIMPDETYGYIIENNETKLFETLTKVLDNKEHMRLMQKKISKNVLENFTWEQSAKQFIKVFNELDEK | not soluble
MGSDKIHHHHHHMKEYIMSFFNAPVTNKIPTCICSVAGLHTYISTNPQLEELTRKVRAGLGDKQVFRKNKQTLLPYVTPAGIFSYCKEQCMQVPSGLFVIDIDELASTEEAAMWRDRLFADEVLHPVLSFVSPGNQGVKLFIPYRINPFLSVEESFDNALHTAWEYLEWKYELKVDRANADLSRACFLSHDGEAKINNHKY | not soluble
MGSDKIHHHHHHMKFSDIISKLEVTNYSLTQNPNNDPEITGMAAIDEATSGTLSYIEGAKFASFIAKTNASALILPQNEAMQAQAQERGIVWMATPEPRLLFAKAIALFYQPYTPTPEIHPTAVIHPTAKIGNDVYIGPHVVIQPGVEIGNGVIIHPNVVIYPGVKIGDRTILHANCTIEERSQIGADCVIHSGAVIGGEGFGFVPTRTGWYKMEQSGYVVLEDRVDIGCNTTIDRPSVGETRVGYDTKIDNLVQIAHGCQIGAGCAIAAQTGMAGGVKLGNRVILAGQVGIANQAKMGDGSTASAQTGILHDVKPGEVVSGTPAIPHKMYLKIAALYSRLPDMYQAFRQSQRQLEEEGKR | not soluble
MGSDKIHHHHHHMKFVEIRDLQVTYMGKDKPSIVVDKLDIEEGESVLITGRSGSGKSTLVSVINGVIPHLINAEIKGEVRVFGFDVKSTPIHEISKYVGTLLQDPDTQAFNYTIIDEVAFGVENYMISRDEMIERVEESMKIYGISHLRDREINTLSGGELQRTILASVLAMRPKALILDEPTSNIDPQGTREILELVKTFRSEGISLVLVEHKIERVLPFVDRIIVVEEGKIAVDVRKDEIVDKADFLYSLGLEIPDYMLFLKKNGFRKIDYEYLRKTYTYRPPSRIGGKGEALYASVKVKTKNGIYLINTKISLKQGTITALMGKNGSGKTTLLKVIVGLIDKKRLIVEEEKVIVNGVDLSKTKLVERGKFIAYLPQFFDVMFIKRTVEDEIKFSMKNRGTYDEKRLGEVLKMFSLDAYRKEDPLVLSMGQRRRVAMASVLAGGAKVILMDEPTSGQDWYHRQILGKELLELRDKGYTILVVTHDSRFVDRFADYLLVMNEGKIVLEGKPEEVFIKSLRHGIEPPLEYELGGLIKNEHFS | not soluble
MGSDKIHHHHHHMKIDLIISADDIKEEKVKNKTAVVIDMLRATSVITTALNNGCKRVVPVLTVEEALKKVKEYGKDAILGGERKGLKIEGFDFSNSPMEYTEDVVKGKTLIMTTTNGTRAIKGSETARDILIGSVLNGEAVAEKIVELNNDVVIVNAGTYGEFSIDDFICSGYIINCVMDRMKKLELTDAATTAQYVYKTNEDIKGFVKYAKHYKRIMELGLKKDFEYCCKKDIVKLVPQYTNGEIL | soluble
MGSDKIHHHHHHMKIFITGATGLIGSNLIPLLLEKEYQITALVRDMEKARHQLPNQVQLVKALSHYENFNDFDGVINLAGAPIFAQYWTAGYKTELINSRLNLTENLTALINNSNKPPHCFISASATGYYGDQGNNLITEKSLSGNQFTAQLCQQWENIALQANSRVCLLRTGMVFSEKGGALTKILPIYRYGVGGKLGTGKQFWAWISLQDMLQAILFLLENAQCEGAFNLVAPKPIQNKDFNCQLGAWLKRPYLATVPKFLLNLLLGERATLLLDSQNVIPQKLLEAGFHFSTPTFSDFLHSIKK | not soluble
MGSDKIHHHHHHMKIGVLSQFPELYSTRRLVEACESRGHEAWVINPINCYMNINSVKPSIHLEGEEVPMFDAIIPRIHASVTFYGCAVVRQFEMMGVFAANDSISIARSRDKLRALQLLSRKGIGMPVTGFANKPNNIPDLINMVGGAPLVIKLLEGTQGIGVVLAETRKAAESVIEAFLGLKANIMVQEYIKEANGSDIRCFVVGDKVVAAMRRQGPEGDFRSNLHLGGSAEPVKITPQERKSAVAAAKAMGLVVAGVDILRSARGPLVLEVNSAPGIEGIEQATGIKVAEPIVEYIEKVVAARRANHQVIA | not soluble
MGSDKIHHHHHHMKILIDATAALMGGGQTYLINLLNYTEILEHDIIILSPKKLTLPSIQNIHRIDVDKSLENPFIRAVWMRRYLPDLIKERKVDILFCPGGLITKGIPSNCVKVTMFRNMIPFDLKQRVKYPLGYMRFRNWLLERLLLDSMIEADLVIFISEYASKVIKKRAKKKLRNTVIIPHGLSAEFRIFDKKAIPRPQWLPAEDYLLYVSILDVYKAQIELIQGFALLKKWRQTSEKLLLVGPDEERSYYTKMIKKEIVKHGLQNDVIITGPVPYNELPALYYHAKVNIFASECENCPNILLEALGAGRPTLVSDCEPMPEFGGDSVEYFDPTSPEDFANSIIRFIDDENKMKELAKKAGERSLLFDWEKVGRLTWQSIENIYNSKTINM | not soluble
MGSDKIHHHHHHMKKASTLPLFERLVQHDRGGPISCHVPGHKQGALFHKDACSYFQSILSLDVTELTGLDDLHDPRGVIAEAQALTARYVGAEATCFLVNGSTVGNLAMILGTLEPGDTVFVQRDSHKSVMNGLAMARVHPIFLSPSYDERTQLPTGITEQTLKQALIEHPNGKALILTYPSYYGVARSIRPLVQMAKEAGLYVLVDEAHGAHFPVGDPFPKQALEQGADVVVQSAHKTLPALTMGSYLHFAHGLHSKIKDSIREQLQILQSSSPSYPILASLDAARGFLEDLTNVKDTLDSIAEMNRRIEQVERLSVATFSPLPTDPLKTVITVEGATGFALQTELEKEGIYSELADDRHVLLMWGLTPLQKVRQEEIIDKMCRATKRLPALEQISKGCPLSLSWQAHTSLDLSYDEQKRYSIEEVAVEEAVGKVSGATVIPYPPGVPLLLKGEKITEPLIAQFQQLQEAGARFQGRPSEQQGLYVFTLEAMT | not soluble
MGSDKIHHHHHHMKKIVVLGGGPGGLVAAYNLARLLRGKAEITLIDKTGYHLFPPSLLWVMVGQREPEDIMRPLSKLEKHGIKVVTASVESIDPDNNKVATSGGEFEYDYLVVSLGSTPRPELMKADDTVCSPWTVEGALDCRRKLAGFKSGRIIVGAWSWPYKCPPAPFETAFLVKYLLEQRGGDAQVTVVHFWKKPMEPFGPTMAEAFQSFLDMYGVGFKGGVEPMEARGGRLVASSGEEIEYDLAVFAPPHEPPKPVAESPLGDESLGGYMRVDKRTLRSPRYGNVFGVGDIIAPSLGLGMAGIFAHFQAEYVASQIADEILGTYMGEHYNMSGVCVMDLGYAGAAVYCDFSKKVMGEAEYPDCVILGGMRAFRPLKYAFERYWLEKWFT | not soluble
MGSDKIHHHHHHMKKLFMSEYLNYVFQKKVWIVENIYMIKIMQLYYSSYNKKFISHTFFTDAIKNSSFPIFLNYVNNLNDKILYHSQVHGVKHILNVTFFSFLIACNENMSANDMGILLETALYHDIGRDDDMEDSDHGHRGAKKILMHISDNKMDMIIPAVIHAHSLLDEEAYQIFRQYNIEKSQYARYSKILSIIKDADALDRFRLRPNSLNPEYFRIDFSKILISLACVLSKVEWHE | not soluble
MGSDKIHHHHHHMKKQNIAGFSKVDDTANPQDFVSYLDAISSLNSIQKYKQQTFTRLEIQAGDRILDVGCGIGDDVRSLAVKVGNAGEVVGIDRSETMVKEAQSRSADLGLPVAYYVGDAEKLEFPDCTFDACRSDRTFQHLLNPRQALTEIVRVTRCGGRVVVSDPDWETLVIDTGDRALTRKILNFHCDSCVNGWIGRQLPTLFQEVGLHKINVDTYTLILTDCTLADKHLGVINAAMKAQQAGLISIAEAANWITNLEAASQAGRFFCAITGFLAFGCKP | not soluble
MGSDKIHHHHHHMKKSVMLLVCLLGLSACSTKFSYRFLDWAIGWEQEDYVTLDKTQQKAFDTLVEKMVFWHQSKELAHYVVQLKEVENLIKTNELTPLLWAEHVDIAKRHWFRVFEFAMPELLPIIMSLTDSQVKQILTKLREDEQALVKEFAGKSPEQLQKDADKRLQKQFEDWLGSVSAEQKSLIHQYNQQRLSTLDMWLEYRHEWLRQFEVALGQRADKVLLTERLTLLMTQPDELKSEQHKAFLRQNTEAFGTLLLAMNGSLSAKQSKHFYKKLGKLIQDLTELNQEALEKEFKSMKALST | not soluble
